This assay deals with T1, human MUC-1 on cells (human, UniProt P15941 24-1255).
T1 construct: Endogenous on human tumour cell lines and normal kidney and lung cells; also called hMUC-1; mucin 1
Kind of assay: flow cytometry with PE-labeled antibody on tumor cell lines, MESF by PE Quantum Beads. A general note: Flow cytometry measures light scatter and fluorescence of single cells or particles in a stream.

T1 sequence (P15941 24-1255 limits assumed): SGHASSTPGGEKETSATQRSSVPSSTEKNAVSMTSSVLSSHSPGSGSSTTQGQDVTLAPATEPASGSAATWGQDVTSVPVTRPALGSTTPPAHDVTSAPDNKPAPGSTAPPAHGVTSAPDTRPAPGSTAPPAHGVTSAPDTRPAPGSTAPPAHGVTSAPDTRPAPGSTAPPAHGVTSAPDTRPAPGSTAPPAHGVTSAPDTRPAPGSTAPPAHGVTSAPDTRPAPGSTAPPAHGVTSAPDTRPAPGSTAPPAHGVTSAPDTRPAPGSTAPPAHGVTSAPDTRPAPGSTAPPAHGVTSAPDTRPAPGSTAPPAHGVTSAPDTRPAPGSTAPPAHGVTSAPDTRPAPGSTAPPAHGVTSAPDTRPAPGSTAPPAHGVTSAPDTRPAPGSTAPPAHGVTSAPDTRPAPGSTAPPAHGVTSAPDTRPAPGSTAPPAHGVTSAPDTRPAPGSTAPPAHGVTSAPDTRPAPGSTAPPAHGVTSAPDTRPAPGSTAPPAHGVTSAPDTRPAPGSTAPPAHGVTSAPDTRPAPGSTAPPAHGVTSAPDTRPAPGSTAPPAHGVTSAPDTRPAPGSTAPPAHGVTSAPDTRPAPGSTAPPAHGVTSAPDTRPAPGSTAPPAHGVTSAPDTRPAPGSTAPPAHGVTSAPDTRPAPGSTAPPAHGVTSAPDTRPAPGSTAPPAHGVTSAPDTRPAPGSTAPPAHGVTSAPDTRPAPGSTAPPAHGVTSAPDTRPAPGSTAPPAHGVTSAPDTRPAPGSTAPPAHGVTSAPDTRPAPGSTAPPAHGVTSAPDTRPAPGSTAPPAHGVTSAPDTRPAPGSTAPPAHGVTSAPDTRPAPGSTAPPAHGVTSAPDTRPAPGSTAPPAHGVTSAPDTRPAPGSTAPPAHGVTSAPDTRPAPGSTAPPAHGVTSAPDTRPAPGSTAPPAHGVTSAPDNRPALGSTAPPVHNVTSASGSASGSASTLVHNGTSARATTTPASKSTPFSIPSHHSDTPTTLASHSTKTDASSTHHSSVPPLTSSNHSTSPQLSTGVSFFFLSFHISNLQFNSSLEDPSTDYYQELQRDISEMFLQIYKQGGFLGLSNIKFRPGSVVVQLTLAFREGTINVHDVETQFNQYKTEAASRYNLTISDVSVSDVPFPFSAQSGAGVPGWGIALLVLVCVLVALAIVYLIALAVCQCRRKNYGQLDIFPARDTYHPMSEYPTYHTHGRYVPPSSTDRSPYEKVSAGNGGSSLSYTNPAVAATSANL

B1: anti-MUC-1 (D11-28) antibody, PE-labeled (antibody, human IgG1, lambda, L234A L235A, V domains shown)
VH: EVQLVQSGAEVKKPGASVKVSCKASGYSFTGHYMHWVRQAPGQGLEWMGWIDPVTGGTKYAQKFQGWVTMTRDTSISTAYMELSRLRSDDTAVYYCAREVTGDRGQFDKWGQGTLVTVSS
VL: SYVLTQPPSVSVAPGKTARITCGGNNIGSKSVHWYQQKPGQAPVLVIYYGSNRPSGIPERFSGSNSGNTATLTISRVEAGDEADYYCQVWDSSSDWVFGGGTKLTVLG
modifications: PE (phycoerythrin) label, site not stated
notes: also called anti-MUC-1 antibody clone (D11-28); anti-MUC-1 PE antibody
For the molecule B1, the binding result is “binds”.
